Assay results from PMC3651894 (Cell, 2013).

Assays:
[1] = molecular target: F-DicerΔ3 mutant lacking the DUF283 domain (human); experiment: co-IP
[2] = molecular target: F-DicerΔN1 lacking a part of the DEAD-box RNA helicase domain (human); experiment: co-IP
[3] = molecular target: T1, full-length FLAG-tagged Dicer (F-Dicer), baculovirus/Sf9 (human, UniProt Q9UPY3 1-1922); experiment: pull-down + co-IP
[4] = molecular target: T1, full-length FLAG-tagged Dicer …; experiment: SEC

T1 sequence (Q9UPY3 whole entry): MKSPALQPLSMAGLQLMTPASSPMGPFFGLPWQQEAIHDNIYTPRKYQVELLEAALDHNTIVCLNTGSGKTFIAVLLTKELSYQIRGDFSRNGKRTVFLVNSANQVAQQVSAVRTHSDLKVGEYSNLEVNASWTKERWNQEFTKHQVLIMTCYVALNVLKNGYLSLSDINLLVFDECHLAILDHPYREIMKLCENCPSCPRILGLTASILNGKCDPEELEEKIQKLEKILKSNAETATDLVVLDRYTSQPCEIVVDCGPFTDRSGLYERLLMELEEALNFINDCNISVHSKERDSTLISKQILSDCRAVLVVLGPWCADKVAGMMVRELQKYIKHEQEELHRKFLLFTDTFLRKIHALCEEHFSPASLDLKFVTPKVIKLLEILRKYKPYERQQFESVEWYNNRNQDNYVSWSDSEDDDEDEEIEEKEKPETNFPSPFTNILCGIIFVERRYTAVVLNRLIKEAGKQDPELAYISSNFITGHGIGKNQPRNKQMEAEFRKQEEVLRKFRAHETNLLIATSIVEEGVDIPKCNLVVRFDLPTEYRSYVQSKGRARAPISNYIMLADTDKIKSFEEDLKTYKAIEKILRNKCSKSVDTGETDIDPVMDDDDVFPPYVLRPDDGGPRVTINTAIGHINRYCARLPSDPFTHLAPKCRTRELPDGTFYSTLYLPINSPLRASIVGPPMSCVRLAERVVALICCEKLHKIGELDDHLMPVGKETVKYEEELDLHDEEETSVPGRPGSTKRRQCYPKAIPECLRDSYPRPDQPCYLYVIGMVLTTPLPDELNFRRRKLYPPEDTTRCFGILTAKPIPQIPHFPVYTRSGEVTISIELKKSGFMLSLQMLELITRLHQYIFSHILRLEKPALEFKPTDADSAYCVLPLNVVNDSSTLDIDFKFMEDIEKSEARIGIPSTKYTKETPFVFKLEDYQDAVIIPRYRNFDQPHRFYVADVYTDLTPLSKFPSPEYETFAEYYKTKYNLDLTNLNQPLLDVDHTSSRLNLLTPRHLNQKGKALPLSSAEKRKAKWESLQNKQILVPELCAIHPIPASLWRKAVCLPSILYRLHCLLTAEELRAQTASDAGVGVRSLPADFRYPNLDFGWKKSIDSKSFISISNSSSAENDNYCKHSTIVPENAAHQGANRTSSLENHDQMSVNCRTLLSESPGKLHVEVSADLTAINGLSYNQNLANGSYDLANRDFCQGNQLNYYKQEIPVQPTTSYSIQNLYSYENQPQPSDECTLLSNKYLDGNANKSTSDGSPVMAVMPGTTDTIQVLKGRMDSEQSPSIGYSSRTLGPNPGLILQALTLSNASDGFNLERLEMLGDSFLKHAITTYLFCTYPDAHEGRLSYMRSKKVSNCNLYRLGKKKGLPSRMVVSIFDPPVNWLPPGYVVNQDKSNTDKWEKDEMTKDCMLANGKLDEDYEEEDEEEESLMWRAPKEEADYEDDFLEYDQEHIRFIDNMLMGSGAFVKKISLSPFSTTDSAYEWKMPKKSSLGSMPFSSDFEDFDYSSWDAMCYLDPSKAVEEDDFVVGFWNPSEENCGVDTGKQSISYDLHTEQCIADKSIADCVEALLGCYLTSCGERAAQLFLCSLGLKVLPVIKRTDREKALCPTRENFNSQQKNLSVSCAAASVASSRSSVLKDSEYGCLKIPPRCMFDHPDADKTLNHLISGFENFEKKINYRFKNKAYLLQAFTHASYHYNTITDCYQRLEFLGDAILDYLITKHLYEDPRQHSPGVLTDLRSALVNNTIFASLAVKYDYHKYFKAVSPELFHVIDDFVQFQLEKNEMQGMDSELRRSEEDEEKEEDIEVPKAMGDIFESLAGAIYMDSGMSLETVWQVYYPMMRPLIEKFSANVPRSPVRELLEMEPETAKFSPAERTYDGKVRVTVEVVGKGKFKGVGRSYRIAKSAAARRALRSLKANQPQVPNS
F-DicerΔ3 mutant lacking the DUF283 domain (human), sequence (Q9UPY3 whole entry, stated change not applied, the tested form may be a part): as the sequence (Q9UPY3 whole entry) above
F-DicerΔN1 lacking a part of the DEAD-box RNA helicase domain (human), sequence (Q9UPY3 whole entry, stated change not applied, the tested form may be a part): as the sequence (Q9UPY3 whole entry) above

B1: full-length HAT (histidine affinity tag)-tagged ADAR1p110 (H-ADAR1p110), baculovirus/Sf9 (natural protein, human, UniProt P55265-5 1-931, looked up)
chain: MAEIKEKICDYLFNVSDSSALNLAKNIGLTKARDINAVLIDMERQGDVYRQGTTPPIWHLTDKKRERMQIKRNTNSVPETAPAAIPETKRNAEFLTCNIPTSNASNNMVTTEKVENGQEPVIKLENRQEARPEPARLKPPVHYNGPSKAGYVDFENGQWATDDIPDDLNSIRAAPGEFRAIMEMPSFYSHGLPRCSPYKKLTECQLKNPISGLLEYAQFASQTCEFNMIEQSGPPHEPRFKFQVVINGREFPPAEAGSKKVAKQDAAMKAMTILLEEAKAKDSGKSEESSHYSTEKESEKTAESQTPTPSATSFFSGKSPVTTLLECMHKLGNSCEFRLLSKEGPAHEPKFQYCVAVGAQTFPSVSAPSKKVAKQMAAEEAMKALHGEATNSMASDNQPEGMISESLDNLESMMPNKVRKIGELVRYLNTNPVGGLLEYARSHGFAAEFKLVDQSGPPHEPKFVYQAKVGGRWFPAVCAHSKKQGKQEAADAALRVLIGENEKAERMGFTEVTPVTGASLRRTMLLLSRSPEAQPKTLPLTGSTFHDQIAMLSHRCFNTLTNSFQPSLLGRKILAAIIMKKDSEDMGVVVSLGTGNRCVKGDSLSLKGETVNDCHAEIISRRGFIRFLYSELMKYNSQTAKDSIFEPAKGGEKLQIKKTVSFHLYISTAPCGDGALFDKSCSDRAMESTESRHYPVFENPKQGKLRTKVENGEGTIPVESSDIVPTWDGIRLGERLRTMSCSDKILRWNVLGLQGALLTHFLQPIYLKSVTLGYLFSQGHLTRAICCRVTRDGSAFEDGLRHPFIVNHPKVGRVSIYDSKRQSGKTKETSVNWCLADGYDLEILDGTRGTVDGPRNELSRVSKKNIFLLFKKLCSFRYRRDLLRLSYGEAKKAARDYETAKNYFKKGLKDMGYGNWISKPQEEKNFYLCPV
fold reduction of interaction against full-length F-Dicer [1]: < 4 fold
fold reduction of interaction against full-length F-Dicer [2]: < 4 fold
stoichiometry N [3]: ~1 ADAR1 per Dicer
stoichiometry N [4]: 1 ADAR1 per Dicer
